Legend:
[1] = target: T1, TfR1 peptide D3-loop1 (human); assay: peptide ELISA on streptavidin plate, 2 µg/mL 2H7-hFc, anti-hFc HRP
T1 construct: Synthetic peptide, captured on a streptavidin-coated plate; also called peptide No. 11
T1 peptide: LSKVWRDQHFV
Description: (§1) The peptide-antibody binding was identified using a standard enzyme-linked immunosorbent assay (ELISA). The steps were as follows: [0244] (1) The wells of an ELISA plate were coated with 100 μL of 2 μg/mL SA (streptavidin) protein at 4° C. overnight. […] (2) The wells of the ELISA plate were washed with PBST buffer. After adding 200 μL of 2% BSA, the plate was blocked at 37° C. for 1 h. […] (3) The peptide protein was diluted to 2 μg/mL, and a negative control and a positive control (AVI-tagged TfR1 protein) were included. Each experiment contained duplicate controls. […] (4) The wells of the ELISA plate were washed multiple times with PBST buffer. Then, 100 μL of the diluted peptide protein solution from step (3) was added into wells in duplicate, and along with the negative control wells, incubated at 37° C. for 1 h. [0248] (5) The wells of the ELISA plate were washed multiple times with PBST buffer. […] [0249] (6) The wells of the ELISA plate were washed multiple times with PBST buffer. Then, 100 μL of 2× anti-hFc HRP secondary antibody was added, and the plate was incubated at 37° C. for 1 h. [0250] (7) The wells of the ELISA plate were washed multiple times with PBST buffer. After adding 100 μL of TMB chromogenic solution, the reaction was carried out in the dark at room temperature for 30 min. [0251] (8) 100 μL of stop solution (1 mol/L HCl) was added to terminate the reaction. OD450 was measured using a microplate reader, and the readings were recorded.

[2] = target: T2, TfR1 peptide D3-helix1-helix2 (human); assay: as above
T2 construct: Synthetic peptide, captured on a streptavidin-coated plate; also called peptide No. 8
T2 peptide: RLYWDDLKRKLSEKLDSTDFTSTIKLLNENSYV
Description: as §1

[3] = target: T3, TfR1 peptide D3-helix3 (human); assay: as above
T3 construct: Synthetic peptide, captured on a streptavidin-coated plate; also called peptide No. 7
T3 peptide: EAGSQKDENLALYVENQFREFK
Description: as §1

[4] = target: T4, TfR1 peptide D2-loop2-K (human); assay: as above
T4 construct: Synthetic peptide, captured on a streptavidin-coated plate; also called peptide No. 21
T4 peptide: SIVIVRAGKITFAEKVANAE
Description: as §1

[5] = target: T5, TfR1 peptide D1-helix1-helix2 (human); assay: as above
T5 construct: Synthetic peptide, captured on a streptavidin-coated plate; also called peptide No. 18
T5 peptide: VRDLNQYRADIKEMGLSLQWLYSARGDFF
Description: as §1

[6] = target: T6, TfR1 peptide D2-loop3-K (human); assay: peptide ELISA on streptavidin plate, 2 µg/mL 2H7-hFc
T6 construct: Synthetic peptide, captured on a streptavidin-coated plate; also called peptide No. 14
T6 peptide: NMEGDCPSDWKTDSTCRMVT
Description: as §1

[7] = target: T1, TfR1 peptide D3-loop1; assay: as above
Description: as §1

[8] = target: T7, TfR1 peptide D1-helix5 (human); assay: as above
T7 construct: Synthetic peptide, captured on a streptavidin-coated plate; also called peptide No. 17
T7 peptide: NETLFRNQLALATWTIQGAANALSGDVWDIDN
Description: as §1

[9] = target: T2, TfR1 peptide D3-helix1-helix2; assay: as above
Description: as §1

[10] = target: T8, TfR1 peptide D2-loop1-K (human); assay: as above
T8 construct: Synthetic peptide, captured on a streptavidin-coated plate; also called peptide No. 13
T8 peptide: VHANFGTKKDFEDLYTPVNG
Description: as §1

[11] = target: T3, TfR1 peptide D3-helix3; assay: as above
Description: as §1

[12] = target: T9, TfR1 peptide D1-helix2-helix3 (human); assay: as above
T9 construct: Synthetic peptide, captured on a streptavidin-coated plate; also called peptide No. 4
T9 peptide: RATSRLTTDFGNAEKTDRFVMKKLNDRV
Description: as §1

[13] = target: T10, TfR1 peptide D3-helix1 (human); assay: as above
T10 construct: Synthetic peptide, captured on a streptavidin-coated plate; also called peptide No. 5
T10 peptide: RLYWDDLKRKLSEKLDSTD
Description: as §1

[14] = target: T11, TfR1 peptide D3-helix2-helix3 (human); assay: as above
T11 construct: Synthetic peptide, captured on a streptavidin-coated plate; also called peptide No. 9
T11 peptide: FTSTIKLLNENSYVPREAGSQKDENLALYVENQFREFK
Description: as §1

[15] = target: T12, TfR1 peptide D3-helix2 (human); assay: as above
T12 construct: Synthetic peptide, captured on a streptavidin-coated plate; also called peptide No. 6
T12 peptide: FTSTIKLLNENSYV
Description: as §1

[16] = target: T4, TfR1 peptide D2-loop2-K; assay: as above
Description: as §1

[17] = target: T13, TfR1 peptide D2-loop1 (human); assay: as above
T13 construct: Synthetic peptide, captured on a streptavidin-coated plate; also called peptide No. 12
T13 peptide: GTKKDFEDLY
Description: as §1

[18] = target: T14, TfR1 peptide D1-helix1 (human); assay: as above
T14 construct: Synthetic peptide, captured on a streptavidin-coated plate; also called peptide No. 1
T14 peptide: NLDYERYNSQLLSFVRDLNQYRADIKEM
Description: as §1

[19] = target: T15, TfR1 peptide D3-helix3-loop1 (human); assay: as above
T15 construct: Synthetic peptide, captured on a streptavidin-coated plate; also called peptide No. 10
T15 peptide: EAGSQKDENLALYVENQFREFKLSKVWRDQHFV
Description: as §1

OD450 [1]: 0.17 | OD450 [2]: 0.274 | OD450 [3]: 0.155 | OD450 [4]: 0.16 | OD450 [5]: 0.977 | P/N [5]: 3.5 | binding result [6]: no binding (tested: P/N 1.5, limit 2) | binding result [7]: no binding (tested: P/N 1.4, limit 2) | binding result [8]: no binding (tested: P/N 1.2, limit 2) | binding result [9]: no binding (tested: P/N 1.1, limit 2) | binding result [10]: no binding (tested: P/N 1.2, limit 2) | binding result [11]: no binding (tested: P/N 1.1, limit 2) | binding result [12]: no binding (tested: P/N 1.4, limit 2) | binding result [13]: no binding (tested: P/N 1.1, limit 2) | binding result [14]: no binding (tested: P/N 1.2, limit 2) | binding result [15]: no binding (tested: P/N 1.3, limit 2) | binding result [16]: no binding (tested: P/N 1.3, limit 2) | binding result [17]: no binding (tested: P/N 1.4, limit 2) | binding result [18]: no binding (tested: P/N 1.2, limit 2) | binding result [19]: no binding (tested: P/N 1.7, limit 2)
B1: anti-humanized TfR1 single-domain antibody-Fc fusion antibody 2H7-hFC1 (Fc fusion)
chain (part 1 of 2): ESGGGLVQPGESLRLSCVASGSIWSIYTMGWYRQAPGKQRDFVASITGDSTRTLESVKDRFIISRDNTKNTLYLQMNSLKPEDTAVYYCQAITSLGEYWGQGTQVTVSS
notes: Expressed in 293F cells, Protein A purified; labelled with pHrodo iFL Green in the internalization assays; also called VHH-hFc; not shown: human IgG1 Fc: hinge, CH2 and CH3 regions, from vector RJK-V4-hFC1; limits and junction (multiple cloning site) not stat

Reference: patent US20260217847A1 (NANJING REGENECORE BIOTECH, published 2026)
